Experiment [1] deals with human insulin receptor (pAkt assay, CHO cells overexpressing human IR) (human) (UniProt P06213). The experiment is described as follows: cell-based or functional assay.
The target of experiment [2] is minipig insulin receptor (minipig). The experiment is described as follows: cell-based or functional assay.

For the substance Insulin levemir (ligand), the Insulin Receptor pAK Assay EC50 in experiment [1] is 0.51 nM; in experiment [2], 0.5 nM.

For the origin of these results see patent publication US20230105982A1, “INSULIN-INCRETIN CONJUGATES” (Merck Sharp & Dohme Corp., priority 2021, published 2023).
